# The supplement of paper PMC9170038
# Test system: MS2 coat protein
# Assay: apparent KD of MS2 coat protein; higher = weaker reporter binding
# Conditions: Eterna round: R107; input ligand: none
# Method in brief: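 For every design, apparent KD is the median of normalised binding-curve fits from its clusters. The RNA switches were transcribed on-chip from Illumina sequencing clusters and titrated with SNAP-549-labelled MS2 coat protein (twofold steps, 0.7 or 1.5 nM to 3 µM; 0.8–1.5 h to 10–20 min per step). Titrations used 100 mM Tris-HCl pH 7.5, 80 mM KCl, 4 mM MgCl2, without or with constant ligand.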
row,Sequence,apparent KD of MS2 coat protein
1,UGAAAGUAGGGAAGGAGCGCUACAACAUGAGGAUCACCCAUGUUAUGAGGAUCACCCGUGUGGCAGGUAGGUCGCCCAAAACAUG [#13 Same State - Arginine B],43.9 nM
2,CUUGAGACAUGAGGAUCACCCAUGUCCGAAGGAGCGUGCGAAAGCACAGGUAGGUCGCGGACGUGAGGAUCUCCCAUGUGAGCGA [#25 Exclusion - Arginine A],35.9 nM
3,AGCUCGCAUCCUCUAGCGUCAAAGACGCGUCGAGGACCGGUACGGCCGCCACUCGACUUGAGGAUCACCCAAGUCUAAGCGAGCA [TrypAX 11 #SwitchBubble #AlternativeMS2 #MS2Late #CuTurnoff],92.6 nM
4,ACAUGAGUGGAUAAUAAAUAAGAAGGCGAAGGAGCGUGAAGAAUCACAGGUAGGUCGCGCAAAAUACAUGAGGAUCACCCAUGUU [JR_Nu_ExcArginiA_Sub031],27.6 nM
5,AGGAAAACAUGAGCAAAGCUCAUGUGCGAAGGAGCGGCGGAAACGCCAGGUAGGUCGCGCACAUGAGCAUCAGCCAUGUGUAUCA [Omei Arginine B SS A v4],42.3 nM
6,AAACAUGAGGAUCACCCAUGUUCUCGUGUCCGAGGACCGGUACGGCCGCCACUCGGUUCUCGCGAGGAUGGUCAAAGACUAUCCA [Omei Trp A SS B v6],45.1 nM
7,AGAGUCAGACAAAAGUCUGGCUCAGCCGAAGGAGCGUCCGAAAGGACAGGUAGGUCGCGGUUCCAUGAGGAUCACCCAUGGUCCU [ArgAS 28 #OpenEnded #AlternativeMS2],85 nM
8,AUACAUGAGGAUCACCCAUGUAUAGAUGAAGGAGCGACCAGAGGGUCAGGUAGGUCGCAUCACAUGAGGAUCACCCAUGUACUUA [DOUBLE!!! :-D #9],42.1 nM
9,UGGCGAGAAGGAAGGAGCGUCAGCUGAGUCACAUGAGGAUCACCCAUGUAGGACAUGGUGUGACAGGUAGGUCGCCUUCUGCCCU [SS-ArgB18],14.6 nM
10,ACGUAAUGCAGAAGGAGCGUCAACCUCUUACAUGAGGAUCACCCAUGUUACAUGGUUGUAUGACAGGUAGGUCGCUGAAGUACGA [JR_ExcArginiB_Sub001],34.7 nM
11,ACAUUUAACUGAAGGAGCGUGAUAUUUACAUGAGGAUCACCCAUGUCUAUCAUGAGAUAUUCACAGGUAGGUCGCAGACUAAUGA [JR_ExcArginiB_Sub005],26.7 nM
12,GGUUACUCUACGGCCGCCACUGUAAUGUAAAGAUACCUGUACAUGACAUGAGGAUCACCCAUGUGCAGGACCGGGUAGUGUAACC [Tryptophan B 19],61.6 nM
13,GCUGCUUUGGGAAGGAGCGCUGUGGUAGUGUGGCGGACAUGAGGAUCACCCAUGUGCCUGCAGCAGGUAGGUCGCUUAGGGCAGC [EAP NP+V+V2 #16],24.5 nM
14,GGUCGCCUACAUGGGUAGGCGAUUUUGGAAGGAGCGAGCGAGAGCUCAGGUAGGUCGCCAGCACAUGAGGAUCACCCAUGUUUUU [SSArg-A #25 Weakened 1st state],16.1 nM
15,AUACAUGAGGAUCACCCAUGUUAUAGUGAAGGAGCGACAUUUAGGUCAGGUAGGUCGCACUAUUGAAUUAUUAUCCUUAUUUCUU [JR_ExcArginiA_Sub020],14 nM
16,GGGCGCUAUCCCGCGAGGGAUAGCGUUCUUCGAGGACCGGUACGGCCGCCACUCGAACGAGUGGUGACAUGAGGAUCACCCAUGU [Paa],63.6 nM
17,UGUAUGGACUGAAGGAGCGCCUCAAAACAUGAGGAUCACCCAUGUGGACAAUAAGUCCUUGGGCAGGUAGGUCGCAGUCCAUACU [ArgBX 6 #StaticStem #MS2Late],50 nM
18,AGUUAAAUAUGUUAAUAACUAUUUACUGAAGGAGCGUGUUUUGACACAGGUAGGUCGCAGUGACAUGAGGAUCACCCAUGUCGUA [#08 Same State - Arginine A],17.4 nM
19,CUAUGGAUAAGAAGGAGCGUCGAAAAUGGGUAAACAUGAGGAUCACCCAUGUAAAGGGAACGACAGGUAGGUCGCUUAUUUAUAG [AstromonsSSArgB#7],179 nM
20,UAUAUAUAGGGAAGGAGCGGGAACAUGAGGAUCACCCAUGUACAUGAGGAUCACCCAUGUACCCAGGUAGGUCGCCCAUAUAUAU [Exclusion - Arginine B],250 nM

# Same assay, conditions: Eterna round: R107; input ligand: theophylline 20 uM
row,Sequence,apparent KD of MS2 coat protein
1,AUACAUGAGGAUCACCCAUGUCAUACAGAAGGAGCGUCAUAUUAGACAGGUAGGUCGCUGUAAUUUUUAUUAUUCUUUAUGUAUU [JR_Nu_ExcArginiA_Sub026],33.5 nM
2,UGAAAGUAGGGAAGGAGCGCUACAACAUGAGGAUCACCCAUGUUAUGAGGAUCACCCGUGUGGCAGGUAGGUCGCCCAAAACAUG [#13 Same State - Arginine B],46.7 nM
3,CUUGAGACAUGAGGAUCACCCAUGUCCGAAGGAGCGUGCGAAAGCACAGGUAGGUCGCGGACGUGAGGAUCUCCCAUGUGAGCGA [#25 Exclusion - Arginine A],28.2 nM
4,GGCACAUAGUCGGCCGCCACUAGAAUAAGAAGGGAAAACAUGAGGAUCACCCAUGUAAAAGGGACUAGGACCGGGACUAUGUGCC [Shrew],18.2 nM
5,UAUAUAUAUAUUGAUACCAGCAGAGAAAACGUAUAUCCUAACAUGAGGAUCACCCAUGUAUGCCCUUGGCAGCGAUAUAUAUAUA [8.B],31 nM
6,AGCUCGCAUCCUCUAGCGUCAAAGACGCGUCGAGGACCGGUACGGCCGCCACUCGACUUGAGGAUCACCCAAGUCUAAGCGAGCA [TrypAX 11 #SwitchBubble #AlternativeMS2 #MS2Late #CuTurnoff],91.1 nM
7,CAUGGCUGUGCGGCCGCCACUGGCUCAUCCUGCAUUACAUGAGGAUCACCCAUGUUGCGGCCUCCCAGGACCGGGCAUAGCCUGA [Abediat],511 nM
8,ACAUGAGUGGAUAAUAAAUAAGAAGGCGAAGGAGCGUGAAGAAUCACAGGUAGGUCGCGCAAAAUACAUGAGGAUCACCCAUGUU [JR_Nu_ExcArginiA_Sub031],35.3 nM
9,AGGAAAACAUGAGCAAAGCUCAUGUGCGAAGGAGCGGCGGAAACGCCAGGUAGGUCGCGCACAUGAGCAUCAGCCAUGUGUAUCA [Omei Arginine B SS A v4],78.8 nM
10,AAACAUGAGGAUCACCCAUGUUCUCGUGUCCGAGGACCGGUACGGCCGCCACUCGGUUCUCGCGAGGAUGGUCAAAGACUAUCCA [Omei Trp A SS B v6],53.6 nM
11,AUCGUACCUGAUGAUACCAGCAUGUGAUCAUAACAUGAGGAUCACCCAUGUAAUCAGUGAUGCCCUUGGCAGCAUAGUCGAUACA [Same State - Theophylline B (Freestyle 6)],174 nM
12,AGAGUCAGACAAAAGUCUGGCUCAGCCGAAGGAGCGUCCGAAAGGACAGGUAGGUCGCGGUUCCAUGAGGAUCACCCAUGGUCCU [ArgAS 28 #OpenEnded #AlternativeMS2],85.1 nM
13,AUACAUGAGGAUCACCCAUGUAUAGAUGAAGGAGCGACCAGAGGGUCAGGUAGGUCGCAUCACAUGAGGAUCACCCAUGUACUUA [DOUBLE!!! :-D #9],43.7 nM
14,CGAUCUUUCGAAAGAAGGAUCGAGUCUGAUACCAGAGACGAAAGUCUCCCUUGGCAGCAGUGCCAACAUGAGGAUCACCCAUGUA [Theophylline A 9],26.3 nM
15,UGGCGAGAAGGAAGGAGCGUCAGCUGAGUCACAUGAGGAUCACCCAUGUAGGACAUGGUGUGACAGGUAGGUCGCCUUCUGCCCU [SS-ArgB18],25.7 nM
16,ACGUAAUGCAGAAGGAGCGUCAACCUCUUACAUGAGGAUCACCCAUGUUACAUGGUUGUAUGACAGGUAGGUCGCUGAAGUACGA [JR_ExcArginiB_Sub001],50.5 nM
17,ACAUGAGGAUGGGAUACCAGAUACAUGAGGAUCACCCAUACAUGAGGAUCACCCAUGUCCGUCCCUUGGCAGCCCAACAUGAGGA [Exclusion Theophylline B],153 nM
18,GAGCUGAUGUAGAGCGAAUAUACGAGAGAUACCAGUACAGAAAUGUACCCUUGGCAGCUCAACUUUACAUGAGGAUCACCCAUGU [Ex Theophylline A 22],15.2 nM
19,UAUAUAGUGAUGGAUACCAGCAGAGAAAACGUUUAUCCUAACAUGAGGAUCACCCAUGUAUGCCCUUGGCAGCUGUUGUUAUAUA [8.L],30.1 nM
